This is an account of results in patent publication US20250154277A1 (CONCEPT TO MEDICINE BIOTECH, published 2025).

Assay [1] addresses T1, human 5T4-His protein (human, UniProt Q13641 32-355).
T1 construct: also called recombinant 5T4 protein (human 5T4-his tag); human 5T4 protein; not shown: His tag
T1 sequence (looked up): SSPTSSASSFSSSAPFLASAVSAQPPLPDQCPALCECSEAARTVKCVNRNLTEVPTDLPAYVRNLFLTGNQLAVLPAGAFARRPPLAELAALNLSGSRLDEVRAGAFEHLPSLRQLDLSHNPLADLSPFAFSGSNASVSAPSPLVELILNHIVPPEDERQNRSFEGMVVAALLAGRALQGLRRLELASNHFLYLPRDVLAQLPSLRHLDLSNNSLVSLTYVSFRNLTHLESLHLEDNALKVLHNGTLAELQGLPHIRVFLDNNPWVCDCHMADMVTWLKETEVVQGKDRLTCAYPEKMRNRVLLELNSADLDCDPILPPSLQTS
The experiment in a line: ELISA, coated 5T4-His. On the procedure: To evaluate the binding activity of clones, the 286B4 chimeric antibody along with 286B4 humanized mAbs were subjected to ELISA test.
Briefly, microtiter plates were coated with human 5T4-His protein at 1 μg/ml in PBS, 100 μl/well at 4° C. overnight, then blocked with 150 μl/well of 1% BSA. 4-fold dilutions of tested antibodies starting from 20 nM were added to each well and incubated for 1 hour at 37° C. The plates were washed with PBS/Tween and then incubated with Goat Anti-Human IgG-HRP for 30 mins at 37° C. After washing, the plates were developed with TMB substrate and analyzed by spectrophotometer at OD 450 nm. As shown in FIG. 16 and Table 15, most of the humanized clones bound to human 5T4 with high potency.
(In general: ELISA stands for enzyme-linked immunosorbent assay.)

For assay [2], the target named is T1, human 5T4-His protein. The assay can be described thus: SPR Biacore, Protein A capture. On the procedure: The binding of the 286B4 humanized antibodies to recombinant 5T4 protein (human 5T4-his tag) was tested with Biacore using a capture method. The mAbs were captured using Protein A chip. A serial dilution of human 5T4-his tag protein was injected over captured antibody for 3 mins at a flow rate of 30 μl/min. The antigen was allowed to dissociate for 280-800 s. All the experiments were carried out on a Biacore T200. Data analysis was carried out using the Biacore T200 evaluation software.

B1: Hu286B4-8 (antibody, V domains shown)
VH: EVQLQESGPGLVKPSDTLSLTCAVSGYSISNNYYWNWIRQPPGKGLEWIGYITYDGSNNYNPSLKNRITMSRDTSKNQFSLKLSSVTAVDTAVYYCARGGGQLRFDYWGQGTTVTVSS
VL: DIQMTQSPSSLSASVGDRVTITCKASQSVSNEVTWYQQKPGKAPKMLIYYASNRYTGVPDRFSGSGYGTDFTFTISSLQPEDIATYYCQQDYSSPWTFGGGTKVEIK
notes: humanized
As to B1, the EC50 with human 5T4-His protein [1] worked out at 0.68 nM. In the assay with human 5T4-His protein [2], this molecule gave a Kd of 1.08 nM, an off-rate constant (koff) of 0.000103 s⁻¹ and a kon of 94600 M⁻¹ s⁻¹.

B2: Hu286B4-7 (antibody, V domains shown)
VH: EVQLQESGPGLVKPSDTLSLTCAVSGYSISNNYYWNWIRQPPGKGLEWIGYITYDGSNNYNPSLKNRITMSRDTSKNQFSLKLSSVTAVDTAVYYCARGGGQLRFDYWGQGTTVTVSS
VL: DIQMTQSPSSLSASVGDRVTITCKASQSVSNEVTWYQQKPGKAPKMLIYYASNRYTGVPDRFSGSGSGTDFTFTISSLQPEDIATYYCQQDYSSPWTFGGGTKVEIK
notes: humanized
On to B2, for which the midpoint of the response with human 5T4-His protein [1], the EC50, lay at 1.76 nM.

B3: Hu286B4-2 (antibody, V domains shown)
VH: EVQLQESGPGLVKPSDTLSLTCAVSGYSISNNYYWNWIRQPPGKGLEWIGYITYDGSNNYNPSLKNRVTMSRDTSKNQFSLKLSSVTAVDTAVYYCARGGGQLRFDYWGQGTTVTVSS
VL: DIQMTQSPSSLSASVGDRVTITCKASQSVSNEVTWYQQKPGKAPKMLIYYASNRYTGVPDRFSGSGSGTDFTFTISSLQPEDIATYYCQQDYSSPWTFGGGTKVEIK
notes: humanized
Turning to B3, in the assay with human 5T4-His protein [1], it took 1.35 nM to reach a half-maximal effect (EC50).

B4: Hu286B4-16 (antibody, V domains shown)
VH: EVQLQESGPGLVKPSDTLSLTCAVSGYSITNNYYWNWIRQPPGKGLEWMGYITYDGSNNYNPSLKNRITVSRDTSKNQFSLKLSSVTAVDTAVYYCTRGGGQLRFDYWGQGTTVTVSS
VL: DIQMTQSPSSLSASVGDRVTITCKASQSVSNEVTWYQQKPGKAPKLLIYYASNRYTGVPDRFSGSGSGTDFTFTISSLQPEDIATYYCQQDYSSPWTFGGGTKVEIK
notes: humanized
With B4, the EC50 with human 5T4-His protein [1] came to 4.03 nM.

B5: Hu286B4-15 (antibody, V domains shown)
VH: EVQLQESGPGLVKPSDTLSLTCAVSGYSISNNYYWNWIRQPPGKGLEWMGYITYDGSNNYNPSLKNRITVSRDTSKNQFSLKLSSVTAVDTAVYYCARGGGQLRFDYWGQGTTVTVSS
VL: SIVMTQSPSSLSASVGDRVTITCKASQSVSNEVTWYQQKPGKSPKMLIYYASNRYTGVPDRFSGSGYGTDFTFTISSLQPEDIATYFCQQDYSSPWTFGGGTKVEIK
notes: humanized
In turn, B5 came in with an EC50 with human 5T4-His protein [1] of 0.25 nM. In the assay with human 5T4-His protein [2], binding was put at a Kd of 1.04 nM, the koff was 0.000114 s⁻¹ and the kon turned out to be 110000 M⁻¹ s⁻¹.

B6: Hu286B4-17 (antibody, V domains shown)
VH: EVQLQESGPGLVKPSDTLSLTCAVSGYSITNNYYWNWIRQPPGKGLEWMGYITYDGSNNYNPSLKNRITVSRDTSKNQFSLKLSSVTAVDTAVYYCTRGGGQLRFDYWGQGTTVTVSS
VL: DIQMTQSPSSLSASVGDRVTITCKASQSVSNEVTWYQQKPGKAPKMLIYYASNRYTGVPDRFSGSGSGTDFTFTISSLQPEDIATYYCQQDYSSPWTFGGGTKVEIK
notes: humanized
As to B6, in the assay with human 5T4-His protein [1], the EC50 was 0.71 nM.

B7: Hu286B4-5 (antibody, V domains shown)
VH: EVQLQESGPGLVKPSDTLSLTCAVSGYSISNNYYWNWIRQPPGKGLEWIGYITYDGSNNYNPSLKNRVTMSRDTSKNQFSLKLSSVTAVDTAVYYCARGGGQLRFDYWGQGTTVTVSS
VL: SIVMTQSPSSLSASVGDRVTITCKASQSVSNEVTWYQQKPGKSPKMLIYYASNRYTGVPDRFSGSGYGTDFTFTISSLQPEDIATYFCQQDYSSPWTFGGGTKVEIK
notes: humanized
For the molecule B7, in the assay with human 5T4-His protein [1], the EC50 was 0.28 nM. In the assay with human 5T4-His protein [2], this molecule returned a Kd of 1.2 nM, a koff of 0.000128 s⁻¹ and a kon of 106000 M⁻¹ s⁻¹.

B8: Hu286B4-14 (antibody, V domains shown)
VH: EVQLQESGPGLVKPSDTLSLTCAVSGYSISNNYYWNWIRQPPGKGLEWMGYITYDGSNNYNPSLKNRITVSRDTSKNQFSLKLSSVTAVDTAVYYCARGGGQLRFDYWGQGTTVTVSS
VL: DIQMTQSPSSLSASVGDRVTITCKASQSVSNEVTWYQQKPGKSPKMLIYYASNRYTGVPDRFSGSGYGTDFTFTISSLQPEDIATYFCQQDYSSPWTFGGGTKVEIK
notes: humanized
In the assay with human 5T4-His protein [1], B8 registered an EC50 of 0.3 nM.

B9: Hu286B4-13 (antibody, V domains shown)
VH: EVQLQESGPGLVKPSDTLSLTCAVSGYSISNNYYWNWIRQPPGKGLEWMGYITYDGSNNYNPSLKNRITVSRDTSKNQFSLKLSSVTAVDTAVYYCARGGGQLRFDYWGQGTTVTVSS
VL: DIQMTQSPSSLSASVGDRVTITCKASQSVSNEVTWYQQKPGKAPKMLIYYASNRYTGVPDRFSGSGYGTDFTFTISSLQPEDIATYYCQQDYSSPWTFGGGTKVEIK
notes: humanized
In the assay with human 5T4-His protein [1], B9 showed an EC50 of 0.57 nM. In the assay with human 5T4-His protein [2], this molecule gave a Kd of 1.12 nM, a koff of 0.000107 s⁻¹ and a kon of 95500 M⁻¹ s⁻¹.

B10: Hu286B4-6 (antibody, V domains shown)
VH: EVQLQESGPGLVKPSDTLSLTCAVSGYSISNNYYWNWIRQPPGKGLEWIGYITYDGSNNYNPSLKNRITMSRDTSKNQFSLKLSSVTAVDTAVYYCARGGGQLRFDYWGQGTTVTVSS
VL: DIQMTQSPSSLSASVGDRVTITCKASQSVSNEVTWYQQKPGKAPKLLIYYASNRYTGVPDRFSGSGSGTDFTFTISSLQPEDIATYYCQQDYSSPWTFGGGTKVEIK
notes: humanized
B10 yielded an EC50 with human 5T4-His protein [1] of 2.64 nM.

B11: Hu286B4-11 (antibody, V domains shown)
VH: EVQLQESGPGLVKPSDTLSLTCAVSGYSISNNYYWNWIRQPPGKGLEWMGYITYDGSNNYNPSLKNRITVSRDTSKNQFSLKLSSVTAVDTAVYYCARGGGQLRFDYWGQGTTVTVSS
VL: DIQMTQSPSSLSASVGDRVTITCKASQSVSNEVTWYQQKPGKAPKLLIYYASNRYTGVPDRFSGSGSGTDFTFTISSLQPEDIATYYCQQDYSSPWTFGGGTKVEIK
notes: humanized
In the case of B11, in the assay with human 5T4-His protein [1], the midpoint of the response, the EC50, lay at 1.42 nM.

B12: Hu286B4-4 (antibody, V domains shown)
VH: EVQLQESGPGLVKPSDTLSLTCAVSGYSISNNYYWNWIRQPPGKGLEWIGYITYDGSNNYNPSLKNRVTMSRDTSKNQFSLKLSSVTAVDTAVYYCARGGGQLRFDYWGQGTTVTVSS
VL: DIQMTQSPSSLSASVGDRVTITCKASQSVSNEVTWYQQKPGKSPKMLIYYASNRYTGVPDRFSGSGYGTDFTFTISSLQPEDIATYFCQQDYSSPWTFGGGTKVEIK
notes: humanized
Take B12: it took 0.46 nM to reach a half-maximal effect in the assay with human 5T4-His protein [1] (EC50).

B13: Hu286B4-3 (antibody, V domains shown)
VH: EVQLQESGPGLVKPSDTLSLTCAVSGYSISNNYYWNWIRQPPGKGLEWIGYITYDGSNNYNPSLKNRVTMSRDTSKNQFSLKLSSVTAVDTAVYYCARGGGQLRFDYWGQGTTVTVSS
VL: DIQMTQSPSSLSASVGDRVTITCKASQSVSNEVTWYQQKPGKAPKMLIYYASNRYTGVPDRFSGSGYGTDFTFTISSLQPEDIATYYCQQDYSSPWTFGGGTKVEIK
notes: humanized
Molecule B13 showed an EC50 with human 5T4-His protein [1] of 0.51 nM. Besides, in the assay with human 5T4-His protein [2], binding was put at a Kd of 1.14 nM, the koff amounted to 0.000107 s⁻¹ and the kon turned out to be 93400 M⁻¹ s⁻¹.

B14: Hu286B4-9 (antibody, V domains shown)
VH: EVQLQESGPGLVKPSDTLSLTCAVSGYSISNNYYWNWIRQPPGKGLEWIGYITYDGSNNYNPSLKNRITMSRDTSKNQFSLKLSSVTAVDTAVYYCARGGGQLRFDYWGQGTTVTVSS
VL: DIQMTQSPSSLSASVGDRVTITCKASQSVSNEVTWYQQKPGKSPKMLIYYASNRYTGVPDRFSGSGYGTDFTFTISSLQPEDIATYFCQQDYSSPWTFGGGTKVEIK
notes: humanized
As to B14, the EC50 in the assay with human 5T4-His protein [1] turned out to be 0.33 nM.

B15: Hu286B4-19 (antibody, V domains shown)
VH: EVQLQESGPGLVKPSDTLSLTCAVSGYSITNNYYWNWIRQPPGKGLEWMGYITYDGSNNYNPSLKNRITVSRDTSKNQFSLKLSSVTAVDTAVYYCTRGGGQLRFDYWGQGTTVTVSS
VL: DIQMTQSPSSLSASVGDRVTITCKASQSVSNEVTWYQQKPGKSPKMLIYYASNRYTGVPDRFSGSGYGTDFTFTISSLQPEDIATYFCQQDYSSPWTFGGGTKVEIK
notes: humanized
Consider B15, for which the EC50 with human 5T4-His protein [1] was 0.27 nM.

B16: Hu286B4-20 (antibody, V domains shown)
VH: EVQLQESGPGLVKPSDTLSLTCAVSGYSITNNYYWNWIRQPPGKGLEWMGYITYDGSNNYNPSLKNRITVSRDTSKNQFSLKLSSVTAVDTAVYYCTRGGGQLRFDYWGQGTTVTVSS
VL: SIVMTQSPSSLSASVGDRVTITCKASQSVSNEVTWYQQKPGKSPKMLIYYASNRYTGVPDRFSGSGYGTDFTFTISSLQPEDIATYFCQQDYSSPWTFGGGTKVEIK
notes: humanized
On to B16, for which the midpoint of the response in the assay with human 5T4-His protein [1], the EC50, lay at 0.42 nM.

B17: Hu286B4-12 (antibody, V domains shown)
VH: EVQLQESGPGLVKPSDTLSLTCAVSGYSISNNYYWNWIRQPPGKGLEWMGYITYDGSNNYNPSLKNRITVSRDTSKNQFSLKLSSVTAVDTAVYYCARGGGQLRFDYWGQGTTVTVSS
VL: DIQMTQSPSSLSASVGDRVTITCKASQSVSNEVTWYQQKPGKAPKMLIYYASNRYTGVPDRFSGSGSGTDFTFTISSLQPEDIATYYCQQDYSSPWTFGGGTKVEIK
notes: humanized
For the molecule B17, the EC50 with human 5T4-His protein [1] amounted to 0.89 nM.

Broadly, the EC50 is the concentration needed to bring the measured effect to its halfway point. A word on the Kd: it is the constant that tells how readily two partners part at equilibrium. By koff is commonly meant the first-order rate constant of dissociation. A word on the kon: it is a measure of how fast the partners come together. A lower kon goes with slower complex formation.
